Results taken from publication PMC3683064 (PLoS ONE, 2013).
One block for each molecule: values may come before it.

Legend:
Lcc4A = biological target: T1, Lcc4A (Lentinula edodes, UniProt R9WT55); test: ABTS oxidation in presence of co-solvent; assay type: biochemical; details: 1 mM ABTS, 1x McIlvaine buffer pH 4, 30 °C; co-solvent effect, non-specific
T1 construct: full cDNA ORF (527 residues) in pPIC3.5K, secreted from Pichia pastoris GS115 and purified; signal peptide predicted
T1 sequence (R9WT55 18-527): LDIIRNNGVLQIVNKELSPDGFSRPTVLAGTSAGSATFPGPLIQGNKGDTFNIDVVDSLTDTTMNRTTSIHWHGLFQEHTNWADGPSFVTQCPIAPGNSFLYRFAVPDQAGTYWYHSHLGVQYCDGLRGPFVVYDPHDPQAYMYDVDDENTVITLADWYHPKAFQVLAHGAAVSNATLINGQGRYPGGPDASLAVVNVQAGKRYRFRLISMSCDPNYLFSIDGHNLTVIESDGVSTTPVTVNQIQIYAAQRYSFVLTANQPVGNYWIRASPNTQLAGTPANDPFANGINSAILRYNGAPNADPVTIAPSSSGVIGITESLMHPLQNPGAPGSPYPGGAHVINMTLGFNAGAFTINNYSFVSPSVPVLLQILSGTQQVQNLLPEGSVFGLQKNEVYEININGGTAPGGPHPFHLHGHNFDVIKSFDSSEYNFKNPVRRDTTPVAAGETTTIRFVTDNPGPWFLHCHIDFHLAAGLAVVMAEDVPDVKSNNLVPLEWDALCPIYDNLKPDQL
From the text: ABTS oxidation in presence of co-solvent on Lcc4A

Lcc7 = biological target: T2, Lcc7 (Lentinula edodes, UniProt R9WS76); test: ABTS oxidation in presence of co-solvent; assay type: biochemical; details: 1 mM ABTS, 1x McIlvaine buffer pH 4, 30 °C; co-solvent effect, non-specific
T2 construct: full cDNA ORF (560 residues) in pPIC3.5K, secreted from Pichia pastoris GS115 and purified; signal peptide predicted
T2 sequence (R9WS76 30-560): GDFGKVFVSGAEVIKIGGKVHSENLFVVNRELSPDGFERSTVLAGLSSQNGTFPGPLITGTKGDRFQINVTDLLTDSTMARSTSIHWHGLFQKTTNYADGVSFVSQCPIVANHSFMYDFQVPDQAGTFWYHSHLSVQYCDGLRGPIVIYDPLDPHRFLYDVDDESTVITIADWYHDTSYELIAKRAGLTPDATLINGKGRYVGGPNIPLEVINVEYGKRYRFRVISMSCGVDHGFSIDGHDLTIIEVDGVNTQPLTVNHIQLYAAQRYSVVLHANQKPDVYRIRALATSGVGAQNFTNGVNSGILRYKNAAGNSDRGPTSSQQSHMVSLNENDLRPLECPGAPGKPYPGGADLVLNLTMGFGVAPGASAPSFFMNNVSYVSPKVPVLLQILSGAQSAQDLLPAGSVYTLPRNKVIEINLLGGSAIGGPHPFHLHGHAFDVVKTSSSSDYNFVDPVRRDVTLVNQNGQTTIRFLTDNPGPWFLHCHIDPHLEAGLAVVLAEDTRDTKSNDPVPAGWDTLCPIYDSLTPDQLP
From the text: ABTS oxidation in presence of co-solvent on Lcc7

Lcc5 = biological target: T3, Lcc5 (Lentinula edodes, UniProt R9WU11); test: ABTS oxidation in presence of co-solvent; assay type: biochemical; details: 1 mM ABTS, 1x McIlvaine buffer pH 4, 30 °C; co-solvent effect, non-specific
T3 construct: full cDNA ORF (515 residues) in pPIC3.5K, secreted from Pichia pastoris GS115 and purified; signal peptide predicted
T3 sequence (R9WU11 22-515): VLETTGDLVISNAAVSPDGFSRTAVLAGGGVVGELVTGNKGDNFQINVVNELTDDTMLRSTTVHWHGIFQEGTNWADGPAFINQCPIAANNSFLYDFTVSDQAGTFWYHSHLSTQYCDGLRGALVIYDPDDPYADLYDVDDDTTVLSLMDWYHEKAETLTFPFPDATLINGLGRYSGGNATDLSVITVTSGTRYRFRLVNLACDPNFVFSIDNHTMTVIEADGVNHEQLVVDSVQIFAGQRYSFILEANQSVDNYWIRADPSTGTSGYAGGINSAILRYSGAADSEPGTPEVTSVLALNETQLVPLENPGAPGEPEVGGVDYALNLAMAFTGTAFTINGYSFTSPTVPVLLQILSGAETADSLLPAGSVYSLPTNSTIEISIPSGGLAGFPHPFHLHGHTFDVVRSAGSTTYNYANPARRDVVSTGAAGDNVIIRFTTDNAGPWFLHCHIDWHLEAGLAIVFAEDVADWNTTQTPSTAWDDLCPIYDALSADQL
From the text: ABTS oxidation in presence of co-solvent on Lcc5

[1] = substrate: Oc1ccccc1O; test: spectrophotometric oxidation assay; assay type: biochemical, Lentinula edodes; details: 1x McIlvaine buffer pH 4, 30 °C
From the text: (§1) spectrophotometric oxidation assay on Lcc5

[2] = substrate: N[C@@H](Cc1ccc(O)c(O)c1)C(=O)O; test: spectrophotometric oxidation assay; assay type: biochemical, Lentinula edodes; details: 1x McIlvaine buffer pH 4, 30 °C
From the text: as §1

[3] = substrate: COc1cccc(OC)c1O; test: spectrophotometric oxidation assay; assay type: biochemical, Lentinula edodes; details: 1x McIlvaine buffer pH 4, 30 °C
From the text: as §1

purified protein [4] = substrate: COc1ccccc1O; test: purified protein; details: 1x McIlvaine buffer pH 4, 30 °C
purified protein [5] = substrate: CCn1c(=NN=c2sc3cc(S(=O)(=O)O)ccc3n2CC)sc2cc(S(=O)(=O)O)ccc21; test: purified protein; assay type: biochemical, Lentinula edodes; details: 1x McIlvaine buffer pH 4, 30 °C
[6] = substrate: Oc1ccccc1O; test: spectrophotometric oxidation assay; assay type: biochemical, Lentinula edodes; details: 1x McIlvaine buffer pH 4, 30 °C; remark: listed apart in the source
From the text: (§2) spectrophotometric oxidation assay on Lcc4A

[7] = substrate: N[C@@H](Cc1ccc(O)c(O)c1)C(=O)O; test: spectrophotometric oxidation assay; assay type: biochemical, Lentinula edodes; details: 1x McIlvaine buffer pH 4, 30 °C; remark: listed apart in the source
From the text: as §2

[8] = substrate: COc1cccc(OC)c1O; test: spectrophotometric oxidation assay; assay type: biochemical, Lentinula edodes; details: 1x McIlvaine buffer pH 4, 30 °C; remark: listed apart in the source
From the text: as §2

[9] = substrate: Oc1ccccc1O; test: spectrophotometric oxidation assay; assay type: biochemical, Lentinula edodes; details: 1x McIlvaine buffer pH 4, 30 °C; remark: listed apart in the source
From the text: (§3) spectrophotometric oxidation assay on Lcc7

[10] = substrate: COc1cccc(OC)c1O; test: spectrophotometric oxidation assay; assay type: biochemical, Lentinula edodes; details: 1x McIlvaine buffer pH 4, 30 °C; remark: listed apart in the source
From the text: as §3

Molecule: CO [MeOH]
IC50 ^d (v/v %) / MeOH (Lcc4A): 28 v/v %

IC50 ^d (v/v %) / EtOH (Lcc7): 22 v/v % | IC50 ^d (v/v %) / ACN (Lcc5): 18 v/v %
Molecule: CCO [EtOH]

Molecule: CC#N [ACN]
IC50 ^d (v/v %) / ACN (Lcc7): 17 v/v % | IC50 ^d (v/v %) / ACN (Lcc4A): 30 v/v % | IC50 ^d (v/v %) / ACN (Lcc5): 18 v/v %

B1: Lcc5 (Lentinula edodes) (protein)
chain: T3 sequence (R9WU11 22-515)
notes: full cDNA ORF (515 residues) in pPIC3.5K, secreted from Pichia pastoris GS115 and purified; signal peptide predicted
Km [1]: 6280 ± 680 µM | Vmax [1]: 2.65 µmol/min/mg | Vmax/Km [1]: 424 µL/min/mg | Km [2]: 10500 ± 700 µM | Vmax [2]: 1.66 µmol/min/mg | Vmax/Km [2]: 158 µL/min/mg | Km [3]: 113 ± 8 µM | Vmax [3]: 0.6 µmol/min/mg | Vmax/Km [3]: 5300 µL/min/mg | Km (purified protein [4]): 1270 ± 90 µM | Vmax (purified protein [4]): 0.32 µmol/min/mg | Vmax/Km (purified protein [4]): 257 µL/min/mg | Km (purified protein [5]): 325 ± 47 µM | Vmax (purified protein [5]): 2.26 µmol/min/mg | Vmax/Km (purified protein [5]): 6940 µL/min/mg

B2: Lcc4A (Lentinula edodes) (protein)
chain: T1 sequence (R9WT55 18-527)
notes: full cDNA ORF (527 residues) in pPIC3.5K, secreted from Pichia pastoris GS115 and purified; signal peptide predicted
Km [6]: 255 ± 76 µM | Vmax [6]: 0.91 µmol/min/mg | Vmax/Km [6]: 3720 µL/min/mg | Km [7]: 1040 ± 150 µM | Vmax [7]: 1.07 µmol/min/mg | Vmax/Km [7]: 1030 µL/min/mg | Km [8]: 26.0 ± 2.4 µM | Vmax [8]: 0.26 µmol/min/mg | Vmax/Km [8]: 10000 µL/min/mg | Km (purified protein [4]): 648 ± 105 µM | Vmax (purified protein [4]): 0.16 µmol/min/mg | Vmax/Km (purified protein [4]): 246 µL/min/mg | Km (purified protein [5]): 11.2 ± 0.9 µM | Vmax (purified protein [5]): 0.61 µmol/min/mg | Vmax/Km (purified protein [5]): 54400 µL/min/mg

B3: Lcc7 (Lentinula edodes) (protein)
chain: T2 sequence (R9WS76 30-560)
notes: full cDNA ORF (560 residues) in pPIC3.5K, secreted from Pichia pastoris GS115 and purified; signal peptide predicted
Km (purified protein [4]): 8630 ± 2120 µM | Vmax (purified protein [4]): 0.18 µmol/min/mg | Vmax/Km (purified protein [4]): 21.4 µL/min/mg | Km (purified protein [5]): 36.3 ± 1.9 µM | Vmax (purified protein [5]): 19.7 µmol/min/mg | Vmax/Km (purified protein [5]): 543000 µL/min/mg | Km [9]: 38800 ± 5300 µM | Vmax [9]: 0.53 µmol/min/mg | Vmax/Km [9]: 13.8 µL/min/mg | Km [10]: 12000 ± 1000 µM | Vmax [10]: 1.73 µmol/min/mg | Vmax/Km [10]: 144 µL/min/mg
